assay: label from the status in PepcDB records

For “MTIPNQIEVRGGRVHNLKNIDVDIPLNKFVAISGLSGSGKSSLAMGILYEEGSRRYLDALSTYMRRRIKQGSQVDVTSVKHIPSALALRQRPSVPNERATVGTMSETFNILRLIFSRLGSPVCPNGHRLKPSLKIAESMSLSGEKMGQLTCPVCGENFYAPSAEQFAFNSEGACIECGGTGKVRQLDEDKLIADENLSIKEGAVASWSLPGRNFMPNVAEYAGVRIDIPYKDLTAKEKDFVLNGPEKKYKMDFLSGTGRVFHDFNVLYENAHQAVYRSAQTSKSERAQKRIAEFFTYSICPVCHGSRLKPELLKQWVGNSNINQVSQKQLGELPTWADQIQAELPANMHKMAHALFAEFLDNLQPLLDLGLDYLTMARNGNTLSTGELQRIQLARTLRTETTGVLYVLDEPSIGLHPANVAGLIKVLRKLVNQGNSLVVVDHNVDIIAAADEVIEIGPGSGEKGGQILDHGPISTIKNDQQSLIRPYLDGSAQLLARKIANQINNDGISFEVKNYFNLKDIKANIPLNQLTAVTGFSGAGKTSLILDSLVPAIKAESKNEKLPKQIINFSAPVSNVVGVDASPIGKSTRSTVATYTSIMNNLRRLFASQPLAKEKHFTPTYFSYNNKQGACPTCGGTGIVTLDIQFLPDMQQVCPTCHGDRYNQKVQQVKWQGMSIVDILNLDIEGALPLFKRVPKIERELKLLKEVGLDYLHLGESTPTLSGGEAQRLKLVTHLSHKQSDTLFVFDEPTIGLHPLDVKTLVKVMQKLLDQGATLITITHDLNLIANCDYIIDLGPQGGNNGGQIVASGRVMDLIKDPHSLTTQYLAVYCENLICLKIIIDLLA”, which protein production is on record?
Its protein production is “failed”.

For “MTIPYKEQRLPIEKVFRDPVHNYIHVQHQVILDLINSAEVQRLRRIKQLGTSSFTFHGAEHSRFSHSLGVYEITRRICEIFQRNYSVERLGENGWNDDERLITLCAALLHDVGHGPYSHTFEHIFDTNHEAITVQIITSPETEVYQILNRVSADFPEKVASVITKQYPNPQVVQMISSQIDADRMDYLLRDAYFTGTEYGTFDLTRILRVIRPYKGGIAFAMNGMHAVEDYIVSRYQMYVQVYFHPVSRGMEVILDHLLHRAKELFENPEFDYDLQASLLVPFFKGDFTLQEYLKLDDGVLSTYFTQWMDVPDSILGDLAKRFLMRKPLKSATFTNEKESAATIAYLRELIEKVGFNPKYYTAINSSYDLPYDFYRPNKDRHRTQIELMQKDGSLVELATVSPLVAALAGQSQGDERFYFPKEMLDQGNKKHYDLFDETYREFSSYIHNGALVLKK”, which protein production is on record?
Its protein production is “not failed”.

With “MTIQPDFNDEPGAFAMTHTHTALDKTLKERIFHALAFEGLAVLLTAPVLSLVMNKPLAHMGALTLMFSTVAMLWNMLFNSLFDRAQRRMGFQRTLQVRVLHAMLFELGLIVVLVPLAAWWLSIGLVEAFLLDMGLILFFLPYTMAFNWSYDVLRARLVESRQAKAAGCDAG” as the sequence, how does the protein production read?
The protein production was “failed”.

Which protein production does the source give for “MTIQSEQALEQGLIKTLVSMNYQKIEIADENALIVNFRNQLNIHNNIELTDDEFNRIMIHLDSGSIFVKAEKLRNRFPLTRDDESVKWIEFLNTQEWCKNEFQVSNQITDEGRRKCRYDVTILVNGLPLVQVELKKRGVELKQAYSQVQRYHKTAFKGLFNYIQIFVISNGVNTRYFANNPNQGYKFTFPWADFKNNHIDRLDLFAAMFFEQCTLGKMLAKYVVLHQSDKCLMILRPYQFYAVEALLDKVANSVKNGYIWHTTGSGKTLTSFKAAQLIAEMSDIDKVLFVVDRHDLDTQTKKEYDAFAPGAVDSTDNTKELVKALQGKKKLMITTIQKLNNAVQKDRYSKGLQGVKDKNIVMIFDECHRSQFGEMHSNITGFFSKIRYFGFTGTPIFADNANNGCTTKDIFGERLHEYLIKDAIADENVLGFLVEYHGKWKRKSENDKQVKSIDTAEVLLKDERIASITDFILSNYNSSTYERDFNAMLAVGGVKMLIKYYDMFKSRNHDLKIATIFTYTQNEESEDEFTGLGQGFVSVQNTRDILESYIKDYNETFGTEFDTDHFGLYYDDINKRMKNRQIDLLIVSDMFLTGFDAKKLNTLYVDKNLNYHGLLQAFSRTNRVLNEKKKFGKITCFRDLKQQTDDAIKLYSNNKSSEVVLMKPYEKLVERFNEMAAEFLSYFPTVKSVGNLESELDKRRFVILFRAMLRLRNEVKGYNEFDAEDLTIEEQRFADYQSKYLDMSNEFAITSEKEDAESILQDIDFELELVHRDIINVMYILALLQDLKPESSSYPKDRKAVLDTMDSNPELRSKIALIDNFIKLHIDGRQSNDLPADMESDLDKYIATQKAIAIEQVATEEGIDSTLLHEYISEYEYLGKPKNEIIKRAIDPLKLSFMDAQSKKKSLIDKMKDIIKLFSWN” here?
Its protein production is “failed”.

Which protein production does the source give for “MTIRAGSLDRRTLLRGAIATAAMGSFAVACSSPSSEDKESDSGPKGEKSANNPFGAAANSTVEAAIFDGGYGTDYVDYANQVLGSQVKGLKVQVKPVVDIAPQLQPRFVGGNPPDLIDNSGEDQIGFLGILDQLEELDDLFEASTYEGKKIADIVYPGVKDPGTFKDKFVALNYVMTVYGVWYSKTLFEENGWTPPKTWDEALDLGQEAKKKGKYLFVHGKEAATYYRTLLIDSAIKEGGDEVRLALENLEKGCWSHPAVQGVIKVMETMVKQKMFVPGGSGTQFQKAQAIWSNDQKALLYPSGGWIENEMKKATKADFQMTGIPSMTLTDKPALPYEALRAAAGEPFIVPKQGKNPAGGKEVLRAMLSEKAAANFSKTKLAPTIVKGTVPADGYGSTALVSQTKMLEAAGTNIFNYMFVETYGLNTDQLVPWNSFLAGDLDGKGLTSALQKISDKVREDDSVDKVKVS” here?
The protein production was “failed”.

Which protein production does the source give for “MTIRMIPHPIFSSPTKRRREKPDPPARAGAAQPSGPARMTPQQQTEWQQRLIALLESQPPDDDGAHDLSHLHRVWAVARTLLAHYPDADSIVVMAGSYLHDLVNLPKNHPQRQLASHWSAERARQLLADSGLTEAQLDNLAHAIEAHSYSAAIPPRTLEARIVQDADRMDALGPVGLARMFYVSGRMGRALAHPLDPLAEHRGRDDQAWAIDHIDVKLAKLPGMMQTEAGRAMAERKLEWLFHFRDEFCRDWMARLEHHHHHH” here?
The protein production was “not failed”.

Which protein production does the source give for “MTISEVSKKYELSADTLRYYERIGLIPPVNRNKSGIRSFTEEDCEWVNFIKCMRGAGLSIETLIEYVAMFQQGSSTIKARKELLIEQRNQLAKRIEEMQKTLERLNFKIDRYEEGIIEKEKVLKSSRNKKMEAVS” here?
The protein production was “failed”.

With “MTISEVSKKYELSADTLRYYERIGLIPPVNRNKSGIRSFTEEDCEWVNFIKCMRGAGLSIETLIEYVAMFQQGSSTIKARKELLIEQRNQLAKRIEEMQKTLERLNFKIDRYEEGIIEKEKVLKSSRNKKMEAVSYE” as the sequence, how does the protein production read?
The protein production was “not failed”.

With “MTITPQQLIALLPLLIVGLTVVVVMLSIAWRRNHFLNATLSVLGLNAALVSLWFVGQNGAMDVTPLIRVDGYAMLYTGLVLLASLATCTFAYPWLEGYKDNKEEFYLLVLIAALGGILLAGANHLAALFLGIELISLPLFGLVGYAFRQKRSLEASIKYTILSAAASSFLLFGMALVYANSGNLSFLALGKSLADNMLHEPLLLAGLGLMIVGLGFKLSLVPFHLWTPDVYQGAPAPVSTFLATASKIAIFGVVMRLFLYMPVGNSEAVRVVLGLIAFASIIFGNLMALSQTNIKRLLGYSSISHLGYLLVALIALQSGEMSMEAVGVYLAGYLFSSLGAFGVVSLMSSPYRGPDADSLFSYRGLFWHRPILSAVMTVMMLSLAGIPMTLGFIGKFYVLAVGVHAHLWWLVAAVVVGSAIGLYYYLRVAVSLYLSAPEQLNRDAPSNWQYSAGGIVVLISALLVLVLGIWPQPLISIVQLATPLM” as the sequence, how does the protein production read?
Its protein production is “failed”.

For “MTITSFGPANRIARTAETHPLTWRLRDDGEPVWLDEYQTKDGYAAARKALTQQAPDDIVQSVKDSGLKGRGGAGFPTGVKWGLMPKDESMNIRYLLCNADEMEPNTWKDRMLMEQLPHLLIEGMLISARALKAYRGYIFLRGEYVTAAKHLNRAVAEAKAAGLLGKNILGTGFDFELFVHTGAGRYICGEETALINSLEGRRANPRSKPPFPAAVGVWGKPTCVNNVETLCNVPAIVNNGNDWYKSLAREGSEDHGTKLMGFSGKVKNPGLWELPFGVQARELFEDYAGGMRDGFTLKCWQPGGAGTGFLLPEHLDAQMYAGGIAKVGTRMGTGLAMAVDDSVNMVSLLRNMEEFFAQESCGFCTPCRDGLPWSVKILRAIENGHGQPGDIETLLGLVNFLGPGKTFCAHAPGAVEPLGSAIKYFRSEFEAGIAPASAAMLVPGKSPTVVGALEHHHHHH”, which protein production is on record?
The protein production was “failed”.

For “MTIYSPDTINFNGVSGDRYWFDEPFPYTGVADIDERLSGFPVAVFLPHHRPRQETPLVIGLQGMCAPYGWNAFIVPILIEMGIAVALFDPPLSGERSLVRTSTTLVQNEIKPLIDRGIPFDTALFLSIFRTTARDIGKIREFCGDRYGLTDSRLALFGVSMGVLLSAYAFTANSLGDRLLGTIGHADLPSFAKSWGRPFLPDLAASPLGGLAESLLQRLQPDLAPLFNLLRLTKNLKYQDEYAWDCNPMNYIQQVESHRRVRFLIGANDSIVKIKDARACAQKFPDGDCYIVPGMGHGTRQSGVSFVDHVRYFLATQLGDWRG”, which protein production is on record?
The protein production was “failed”.

With “MTKACEANKSFLQSAVDKKEYSRTLLVDDGSDEGARSAGAFRPTPHRKGHGGRSPRRDQSPRRDSPQTASRTRLSSELIADLLQKKRERPTRSSSFPKRDKTIARTDRSPRSSPLPRSMGPPPPVIASPSSRSWGERPVGVQILTRRV” as the sequence, how does the protein production read?
The protein production was “failed”.

For “MTKAIQSSVQVGELATGQALTVPIYSFMGSENSAPSVYIQANVHGAEVQGNAVIYQLMTLLEGYQVLGDITLAPLANPLGINQKSGEFTLGRFDPITGVNWNREYFDHNVDIQNWYAEHQHLTNSELFCAYRSMLVETCQARLTHSFGISTGHRLAVNLQAMAHQADIVLDLHTGPKSCKHLYCPEYDIDAARFFSIPYTLIIPNSFGGAMDEATFCPWWQLTEYATSQGREFSVPVSAFTLELASQERIDLADALEDAKGILAYLSHRGVIAEKVNPASMERFGCYLKDYKKFHAPKAGLIEYCASVGEPLTAGKPLVNILRIDLYGSEQAYQAISLPMDCVPILHFASASVLQGTELYKVMTNVFPLQPS”, which protein production is on record?
Its protein production is “not failed”.

For “MTKDRQIKKTKTAIYSAFIALLQKKEYSKITVRDMITLANVGRSTFYAHYESKEMLLKELCEELFHHLFRQKRNVTFEDYLVHILKHFEQNKDSIATLLLSNDPYFLLRFKNELEHDVYPNLRCKYIDKTTIPEVFLKQFVLSSFIETLKWWLHQRQRMSANELLKYYLELIK”, which protein production is on record?
Its protein production is “failed”.

With “MTKEPRNLSEWIKELKKASREAVILVEGKNDKKALSKFSIKNVIDLSGKRYADVVDMLEGKWEKVILLFDLDTHGERINQKMKELLSSQGFLVDENFRNFLKKWNIIHIEEINGGKNS” as the sequence, how does the protein production read?
Its protein production is “not failed”.

Which protein production does the source give for “MTKGISALSNIATLRSRELGPETFIPYVRHVDETTIALESRALMTMIALDGVSFETSDVRDLNGLHRSLNTLYRNIADERLALWTHVVRRRDNAYPEGRFANPFSDGLNARYRERMVNENLFRNDLYLTLVWHPGRDPAEKAAKLLSRLSKARRSDTELDGQALKHLRDHVADVAAGLQRFGPRQLTLHEHDGILFSEPSEVLHQIVGGRREPIPLTEGRISSAIYSDRVIFGRETIEIRHEADSRYAGMFGFKEYPATTRSGMLDAILTAPFELILTQSFAFTSKADARTIMGRKQNQMVSAGDKAASQIEELGEAMDDLESNRFVLGEHHLTLAVFAPSVKELTDHMAKARAYLTSGGAVVAREDLGLEAAWWAQLPGNFRYRARSGAITSRNFAALAPYHSYPAGKKDGNEWGPAVAMLKTASGSPFYFNFHHGDLGNSFVCGPSGTGKTVLLNFMLSQLEKHGPHMVFFDKDRGADLFVRAAGGTYLPLKNGVATGCAPLKALEFTAENKVFLTGWIAKLVRSGPGELSITELRDIALAVDGVADLPVERRSIGALRTFLNNTDPEGIAARLRRWEKGGPLGWVFDNEADDIGIGARFIGYDMTDFLDNEEIRTPLMAYLFYRIEQLIDGRRIIIVIDEFWKALQDEGFRDLAQNKLKTIRKQNGLMLFATQSPRDAIVSPIAHTIIEQCPTQIFLPNPRGDRADYVDGFKLTEREFELVSRELSVESRRFIVKQGHNSVVAELNLNGFDDELAILSGRTANVELADAIRLEIGEGREDWLAVFHQRRKTA” here?
Its protein production is “failed”.

For “MTKGSLSGLPRENIELPDGSVLRRRSLVSDDAFIDAVTADVGHLGEWLRWARHPPTREETERFRAEQDADWDAGRSFVYVLTPPDRHDQVLGGGAMFPNGEVGVLEIGYWVCSPATGRGLATRAAAALTEEGLGLPGVKAMEIHCDRANARSAAIPPRIGYRLLRIEADEPQTVAEAGRSMVWRHDGA”, which protein production is on record?
Its protein production is “failed”.

Source: a protein production outcome set (Wang et al. 2014)
